In IntAct's records for PubMed 18256029:

Target: pdcd6_human PDCD6 (UniProt O75340)
Sequence (O75340 whole entry): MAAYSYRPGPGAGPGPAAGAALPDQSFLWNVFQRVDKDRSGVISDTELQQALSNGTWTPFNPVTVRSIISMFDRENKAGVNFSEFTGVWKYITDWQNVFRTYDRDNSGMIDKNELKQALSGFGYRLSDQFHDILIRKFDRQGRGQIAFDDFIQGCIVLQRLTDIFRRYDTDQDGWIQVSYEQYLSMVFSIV

Phospholipid scramblase 3 (Homo sapiens), Q9NRY6 F49A, sequence (Q9NRY6 whole entry F49A): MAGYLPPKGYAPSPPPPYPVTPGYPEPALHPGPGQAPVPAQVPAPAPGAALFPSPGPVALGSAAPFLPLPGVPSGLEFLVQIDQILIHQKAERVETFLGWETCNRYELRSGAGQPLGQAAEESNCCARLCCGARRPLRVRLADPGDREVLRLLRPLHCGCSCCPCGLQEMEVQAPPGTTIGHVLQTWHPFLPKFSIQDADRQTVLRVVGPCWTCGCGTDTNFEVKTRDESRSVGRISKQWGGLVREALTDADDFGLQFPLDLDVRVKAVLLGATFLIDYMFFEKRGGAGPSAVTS
Phospholipid scramblase 3 (Homo sapiens), Q9NRY6 F49L, sequence (Q9NRY6 whole entry F49L): as the sequence (Q9NRY6 whole entry F49A) above, with A49L counted along it
Phospholipid scramblase 3 (Homo sapiens), Q9NRY6 F49A;F52A, sequence (Q9NRY6 whole entry F49A/F52A): as the sequence (Q9NRY6 whole entry F49A) above, with F52A counted along it
Phospholipid scramblase 3 (Homo sapiens), Q9NRY6 F49Y, sequence (Q9NRY6 whole entry F49Y): as the sequence (Q9NRY6 whole entry F49A) above, with A49Y counted along it
Phospholipid scramblase 3 (Homo sapiens), Q9NRY6 P43A;P45A;P47A;P53A, sequence (Q9NRY6 whole entry P43A/P45A/P47A/P53A): as the sequence (Q9NRY6 whole entry F49A) above, with P43A, P45A, P47A, A49F, P53A counted along it

Question: With “Phospholipid scramblase 3 (Homo sapiens), Q9NRY6 P43A;P45A;P47A;P53A” as the substance, how does the “effect of a mutation on the interaction” value read?
Answer: Its value is “decreasing interaction”.

Question: Which “effect of a mutation on the interaction” value does the source give for “Phospholipid scramblase 3 (Homo sapiens), Q9NRY6 F49L” here?
Answer: The value was “decreasing interaction”.

Question: Which “effect of a mutation on the interaction” value does the source give for “Phospholipid scramblase 3 (Homo sapiens), Q9NRY6 F49A” here?
Answer: The value was “decreasing interaction”.

Question: How did the “effect of a mutation on the interaction” value turn out when “Phospholipid scramblase 3 (Homo sapiens), Q9NRY6 F49A;F52A” was run?
Answer: Its value is “disrupting interaction”.

Question: With “Phospholipid scramblase 3 (Homo sapiens), Q9NRY6 F49Y” as the substance, how does the “effect of a mutation on the interaction” value read?
Answer: The value was “decreasing interaction”.
